Nine molecules from US20200031947A1 (RINAT NEUROSCIENCE, published 2020) can be followed below.

By Kd is commonly meant the constant that tells how readily two partners part at equilibrium. A high value points to a looser complex. The term koff denotes the rate constant with which the complex falls apart. As a reminder, the kon is the second-order rate constant of association. Low values mean slower complex formation, high ones faster complex formation. The term EC50 (read off the curve) denotes the concentration giving half of the maximal effect. A low value points to an effect from little substance.

Substitutions are numbered along the chain they refer to.

T1: human GITR on cells (human, UniProt Q9Y5U5 26-162)
T1 sequence: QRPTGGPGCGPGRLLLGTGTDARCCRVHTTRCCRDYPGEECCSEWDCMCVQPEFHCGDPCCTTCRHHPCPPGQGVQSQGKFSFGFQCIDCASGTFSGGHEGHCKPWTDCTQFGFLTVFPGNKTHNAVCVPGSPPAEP

T2: human GITR (hGITR), soluble analyte (human, UniProt Q9Y5U5 26-162)
T2 sequence: T1 sequence

T3: mouse GITR (mGITR), soluble analyte (mouse, UniProt O35714 20-153, limits assumed)
T3 construct: Soluble analyte in SPR; construct not described
T3 sequence (looked up): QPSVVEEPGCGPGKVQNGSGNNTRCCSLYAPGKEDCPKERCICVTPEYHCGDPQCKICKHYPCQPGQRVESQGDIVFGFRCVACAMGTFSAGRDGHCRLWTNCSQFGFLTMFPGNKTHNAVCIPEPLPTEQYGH

B1: h3G7 R5 (antibody, V domains shown)
VH: QVQLVQSGAEVKKPGASVKVSCKASGYTFTGATMNWVRQAPGQGLEWMGLINPYTGGIRYNQKFKGRVTMTRDTSTSTVYMELSSLRSEDTAVYYCARIGGYYDSMDYWGQGTLVTVSS
VL: DIQMTQSPSSLSASVGDRVTITCRASESVEPRGINFLNWYQQKPGKAPKLLIYAASQASKGVPSRFSGSGSGTDFTLTISSLQPEDFATYYCQQALELPWTFGGGTKVEIK
notes: Only variable domains are tied to this name
B2: h3G7 N9 (antibody, IgG1, V domains shown)
VH: B1 VH with A32Y, M34V, N35S
VL: B1 VL with E30Q, Q57N, A58P
B3: h10H2 N14 (antibody, IgG1, V domains shown)
VH: QVQLVQSGAEVKKPGSSVKVSCKASGGTFSRYWIEWVRQAPGQGLEWMGEILPGSGVTFENEKFKGRVTITADESTSTAYMELSSLRSEDTAVYYCARKGRYYAMDYWGQGTSVTVSS
VL: EIVLTQSPGTLSLSPGERATLSCRASQSIGTSIHWYQQKPGQAPRLLIYYASESVSGIPDRFSGSGSGTDFTLTISRLEPEDFAVYYCQQTYSWPATFGQGTKVEIK
notes: also called R14; h10H2 R14
B4: h3G7 AM (antibody, V domains shown)
VH: B1 VH with T55N
VL: B1 VL with E30D, Q57N, A58Q, S59A
notes: Whole IgG captured on an anti-human Fc chip
B5: h3G7 LF (antibody, V domains shown)
VH: B1 VH with S105T
VL: B1 VL
notes: as for B4
B6: h10H2 HU (antibody, V domains shown)
VH: B3 VH with F59N, E60Y, R101T
VL: B3 VL
notes: as for B4
B7: h10H2 AM (antibody, V domains shown)
VH: B3 VH with S113L
VL: B3 VL
notes: as for B4
B8: anti-mGITR r18H12 mIgG2a (antibody, V domains shown)
VH: EVQLVESDGVLVQPGKSLTLSCAASGFTFSDYYMAWVRQAPTKGLEWVATISYDDITTFYRDSVKGRFTISRDTAKSTLYLQMDSLRSEDTATYYCTRGLQWPYVMDAWGQGALVTVSS
VL: DIVMTQSPSSLAVSAGETVTINCKSSQSLLYSGNQKSYLAWYQQKPGQSPKLLIYWASPRQSGVPDRFIGSGSGTDFTLTISSVQAEDMATYYCQQYYDAPPTFGGGTKLEIK
B9: anti-mGITR r21B6 mIgG2a (antibody, V domains shown)
VH: EAQLVESGGGLVQPGRSLKLSCEASGFTFTKYGMAWVRQAPTKGLEWVASIINSGGNTYYRDSVKGRFTISRDNAKSTLYLQMDSLRSEDTATYYCATDYYDGSYHSDVVDAWGQGVLVTVSS
VL: EIVLTQSPTTMAASPGEKVTITCRASSSLNYMHWFQQKSGTSPKPWIYDTSELASGVPDRFSGSGSGTSYSLTISSMEAEDAATYYCLQKNGYPLTFGSGTKLEIK
notes: also called m21B6 IgG2a

One experiment deals with T1, human GITR on cells. In words: cell-based or functional assay.
Take B1: the “EC50 of macrophage-mediated cytotoxicity (ADCP) of a GITR+ T cell line” value was determined as 0.92 nM.
Still for that read-out and setting: then B2, with 0.692 nM; and B3, with 2.01 nM.

The next experiment deals with T2, human GITR (hGITR), soluble analyte. Put plainly: SPR (Biacore T200), 37 C; antibody captured on anti-human Fc chip, GITR as analyte; 1:1 Langmuir fit. The procedure: (§1) The sensor chip preparation was performed at 25° C. with a running buffer of 10 mM HEPES, 150 mM NaCl, 0.05% (v/v) Tween-20, pH 7.4. An anti-human Fc sensor chip was made by activating all flow cells of a Biacore CM4 sensor chip with a 1:1 (v/v) mixture of 400 mM EDC and 100 mM NHS for 7 minutes, at a flow rate of 10 μL/min. An anti-human Fc reagent (Goat Anti-Human IgG Fc, SouthernBiotech Catalog #2081-01) was diluted to […] in 10 mM Sodium Acetate pH 4.5 and injected on all flow cells for 7 minutes at 20 μL/min. All flow cells were blocked with 100 mM ethylenediamine in 150 mM Borate buffer pH 8.5 for 7 minutes at 10 μL/min.
(§2) Antibodies were captured from undiluted supernatants onto downstream flow cells (flow cells 2, 3 and 4) at a flow rate of 10 μL/min for 2 minutes. Different antibodies were captured on each flow cell. Flow cell 1 was used as a reference surface. Following capture of antibodies, analyte (buffer, hGITR, or cyGITR) was injected at 30 μL/min on all flow cells for two minutes. After the analyte injection, dissociation was monitored for 10 minutes followed by regeneration of all flow cells with three 1-minute injections of 75 mM Phosphoric Acid. For each captured antibody, the following analyte injections were performed: buffer, 20 nM hGITR, 200 nM hGITR, 20 nM cyGITR and 200 nM cyGITR. Buffer cycles were collected for each captured antibody for double-referencing purposes (double-referencing as described in Myszka, J. Mol. Recognit. 12:279-284 (1999). The double-referenced sensorgrams were fit globally to a simple 1:1 Langmuir with mass transport binding model.
B1 gave an equilibrium dissociation constant (Kd) of 5 nM, a koff of 0.0045 s⁻¹, an on-rate constant (kon) of 900000 M⁻¹ s⁻¹ and a t1/2 of 2.6 min.
The matching figures for B4: 17 nM, 0.019 s⁻¹, 1.1e+06 M⁻¹ s⁻¹ and 0.61 min.
The molecule B5 came in with a Kd of 22 nM, a dissociation rate constant (koff) of 0.015 s⁻¹, a kon of 690000 M⁻¹ s⁻¹ and a t1/2 of 0.76 min.
Turning to B6, the dissociation constant Kd is > 100 nM, the koff was 0.0563 s⁻¹ and the t1/2 turned out to be 0.21 min.
In the case of B7, the Kd was 6.6 nM, the koff stood at 0.00154 s⁻¹, the kon came out at 233000 M⁻¹ s⁻¹ and the t1/2 was 7.5 min.

Another experiment concerns the target T4, cynomolgus GITR (cyGITR), soluble analyte (cynomolgus).
T4 construct: Soluble analyte in SPR; construct not described; also called cGITR
The description is as above. The procedure: as §1, §2
Consider B1, for which the affinity, expressed as Kd, was 6.4 nM; the off-rate (koff) was 0.0038 s⁻¹; the kon worked out at 600000 M⁻¹ s⁻¹; the t1/2 worked out at 3 min.
The matching figures for B4: 13 nM, 0.0088 s⁻¹, 670000 M⁻¹ s⁻¹ and 1.3 min.
Molecule B5 yielded a dissociation constant Kd of 69 nM, a koff of 0.023 s⁻¹, a kon of 330000 M⁻¹ s⁻¹ and a t1/2 of 0.51 min.
Regarding B6, the dissociation constant Kd was > 100 nM.
Regarding B7, the Kd is > 100 nM, the koff was 0.011 s⁻¹ and the t1/2 amounted to 1.1 min.

Another experiment deals with T3, mouse GITR (mGITR), soluble analyte. In words: SPR (Biacore T200), 37 C; purified antibody captured on anti-mouse Ig chip, mGITR as analyte (300 nM top, 3-fold series); 1:1 Langmuir fit. The procedure: The sensor chip preparation was performed at 25° C. with a running buffer of 10 mM HEPES, 150 mM NaCl, 0.05% (v/v) Tween-20, pH 7.4. An anti-mouse Fc sensor chip was made by activating all flow cells of a Biacore CM4 sensor chip with a 1:1 (v/v) mixture of 400 mM EDC and 100 mM NHS for 7 minutes, at a flow rate of 10 μL/min. An anti-mouse immunoglobulin reagent (Rabbit anti-mouse immunoglobulin antibodies from Biacore Mouse Antibody Capture Kit, GE Lifesciences Catalog # BR-1008-38) was diluted to […] in 10 mM Sodium Acetate pH 5.0 and injected on all flow cells for 7 minutes at 20 μL/min. All flow cells were blocked with 100 mM ethylenediamine in 150 mM Borate buffer pH 8.5 for 7 minutes at 10 μL/min.
The experiments were performed at 37° C. using a running buffer of 10 mM HEPES, 150 mM NaCl, 0.05% (v/v) Tween-20, pH 7.4, 1 mg/mL BSA.
Purified antibodies were captured at […] onto downstream flow cells (flow cells 2, 3 and 4) at a flow rate of 10 μL/min for 2 minutes. Different antibodies were captured on each flow cell. Flow cell 1 was used as a reference surface. Following capture of antibodies, analyte (buffer, or mGITR) was injected at 30 μL/min on all flow cells for two minutes. After the analyte injection, dissociation was monitored for 10 minutes followed by regeneration of all flow cells with one 3-minute injection of 10 mM Glycine pH 1.7. A 5-membered dilution series of mGITR was analyzed using this method, where the top concentration was 300 nM and the dilution factor was 3-fold. The 33 nM dilution was run in duplicate. Buffer cycles were collected for each captured antibody for double-referencing purposes (double-referencing as described in Myszka, J. Mol. Recognit. 12:279-284 (1999). The double-referenced sensorgrams were fit globally to a simple 1:1 Langmuir with mass transport binding model.
On the technique in general: In SPR one partner is held on a chip, and binding of the other changes the refractive index at the surface.
In turn, B8 displayed a dissociation constant Kd of 2.2 nM, a koff of 0.00049 s⁻¹, a kon of 220000 M⁻¹ s⁻¹ and a t1/2 of 24 min.
The matching figures for B9: 21 nM, 0.0065 s⁻¹, 310000 M⁻¹ s⁻¹ and 1.8 min.

A further experiment deals with T1, human GITR on cells. In words: flow cytometry on in vitro expanded human Tregs; unconjugated antibody detected with A647 goat anti-human Fc gamma F(ab')2; MFI on antibody positive cells. The procedure:
Cultured Tregs would be tracked throughout expansion to check purity. Cells were re-suspended in FACS buffer, PBS with 2% FBS for analysis using fluorophore conjugated CD markers. FACS antibodies against GITR and other CD lymphocyte markers were prepared in FACS buffer at the appropriate concentration and incubated for 30 minutes at RT. Treg purity staining utilizes intracellular targets and were processed with Foxp3 fix/perm kit (Affymetrix/eBiosciense, San Diego, Calif.). Stained cells were resuspended in fresh FACS buffer and analyzed on a FACS analyzer LSRII or Fortessa (BD Biosciences, San Jose, Calif.). To generate kinetic and binding data unconjugated antibody was titrated from 10-0.001 ug/mL (1:10 in serial dilutions, triplicate wells per concentration) and incubated at 4c for 60 minutes with 1*10e5 expanded day 12 Tregs per well. Unbound antibody was washed from cells and an A647 labeled Fc gamma (Fcγ) Fragment Specific goat-anti-human affiniPure F(ab′)₂ IgG was used to detect bound antibody (Jackson ImmunoResearch Laboratories Inc, West Grove, Pa.). Analysis of stained cells completed with FlowJo (Treestar). Geometric mean of APC was used to calculate EC50 by log transforming the molar concentration and generating a non-linear fit curve in GraphPad Prism.
In general terms: Flow cytometry measures light scatter and fluorescence of single cells or particles in a stream.
Take B3: the “EC50 (read off the curve)” value was ~0.03 µg/mL.
